Results: patent publication US20230242674A1 (LANKENAU INSTITUTE FOR MEDICAL RESEARCH, published 2023)

T1: recombinant human IDO2 protein (human, UniProt Q6ZQW0 1-407, limits assumed)
T1 construct: also called human Indoleamine 2,3-Dioxygenase 2; human IDO2 recombinant protein
T1 sequence: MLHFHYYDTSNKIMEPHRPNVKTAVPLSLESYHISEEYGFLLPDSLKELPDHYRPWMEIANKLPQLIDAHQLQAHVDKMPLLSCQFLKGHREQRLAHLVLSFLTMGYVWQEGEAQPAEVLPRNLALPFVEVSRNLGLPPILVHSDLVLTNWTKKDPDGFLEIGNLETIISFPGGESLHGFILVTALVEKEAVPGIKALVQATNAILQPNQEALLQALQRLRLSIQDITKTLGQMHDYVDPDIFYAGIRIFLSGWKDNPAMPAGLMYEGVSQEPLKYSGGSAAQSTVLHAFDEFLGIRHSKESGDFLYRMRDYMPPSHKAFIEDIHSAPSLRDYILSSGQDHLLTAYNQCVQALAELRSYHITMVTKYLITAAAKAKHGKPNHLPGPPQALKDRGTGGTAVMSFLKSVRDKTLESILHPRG

B1: anti-human IDO2 monoclonal antibody 18-1 (antibody, V domains shown)
VH: QVRLQQPGAELVKPGASVKLSCKASGYTFTSYWMHWVKQRPGQGLEWIGEINPSTGRTNYNERFRSKATLTVDKFSTTAYMQFSSLTSEDSAVYYCVGLRFAYWGQGTLVSVSA
VL: DVVMTQTPLSLPVSFGDQVSISCRSSQSLADSYGNTYLSWYLHKPGQSPQLLIYGISNRFSGVPDRFSGSGSGTDFTLKISTIKPEDLGMYYCLQGTHQPLTFGAGTKLELKR
notes: Mouse hybridoma antibody; It was detected with an anti-mouse IgG Fc-specific secondary antibody; also called mAb 18-1

Experiments:
[1] = target: B1; experiment: competitive ELISA; soluble peptide titrated against 1 µg/ml mAb in solution; competitor: coated recombinant human IDO2 (100 ng); plate-bound mAb detected with anti-mouse IgG Fc HRP and ABTS
Protocol: FIGS. 2A and 2B show results of a competitive ELISA that was developed to test the specificity of the antibodies. 100 ng of the recombinant human IDO2 protein was used to coat the ELISA plate. A constant amount (1 μg/ml) of IDO2 antibody was incubated in solution with specified concentrations of soluble peptide. If the antibody interacted with the soluble peptide, the antibody was then unavailable to bind the coated antigen. Anti-IDO2 Ig that bound the fixed protein was detected with an anti-mouse IgG FC-specific HRP secondary antibody and ABTS substrate. Data is presented as Mean±SD. […] FIG. 2A is a graph of a competitive ELISA comparing the recognition of the three anti-human IDO2 mAbs of FIG. 1 to the human epitope, plotting absorbance vs. epitope peptide concentration. FIG. 2B is a graph of a competitive ELISA comparing the recognition of the three anti-human IDO2 mAbs of FIG. 1 to the mouse epitope, plotting absorbance vs. epitope peptide concentration.
A competitive ELISA was developed to test the specificity of the antibodies. 100 ng of the recombinant human IDO2 protein was used to coat the ELISA plate. A constant amount (1 μg/ml) of IDO2 antibody was incubated in solution with specified concentrations of soluble peptide. […] Anti-IDO2 Ig that bound the fixed protein was detected with an anti-mouse IgG FC-specific HRP secondary antibody and ABTS substrate.

[2] = target: T2, human IDO1 with V5 tag, expressed in T-REx cells (human, UniProt P14902 1-403); experiment: Western blot of T-REx cell extracts; HRP secondary antibody, chemiluminescence
T2 construct: Cell extract fractionated for the Western blot; not shown: V5 tag
T2 sequence (P14902 whole entry): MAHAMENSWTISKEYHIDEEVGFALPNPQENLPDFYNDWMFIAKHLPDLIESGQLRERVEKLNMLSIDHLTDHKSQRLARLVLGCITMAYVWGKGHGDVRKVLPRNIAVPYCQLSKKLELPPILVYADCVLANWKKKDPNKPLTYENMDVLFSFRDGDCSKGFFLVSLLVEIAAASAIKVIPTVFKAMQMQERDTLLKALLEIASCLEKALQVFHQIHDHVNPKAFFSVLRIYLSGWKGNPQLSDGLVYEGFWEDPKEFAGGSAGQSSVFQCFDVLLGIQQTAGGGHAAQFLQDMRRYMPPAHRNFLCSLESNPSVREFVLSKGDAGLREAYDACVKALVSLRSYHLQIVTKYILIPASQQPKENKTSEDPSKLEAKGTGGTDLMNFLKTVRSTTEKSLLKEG
Protocol: (§1) FIG. 3 is a Western blot analysis using IDO-expressing Tᵣₑₓ cells. All IDO expressed proteins mouse and human IDO 1 and IDO2 contain a V5 tag. […] Cell extracts for IDO expressing cells or the parental T-REX line were prepared and fractionated as previously described (PMID: 17671174 & 26717206). Detection of indicated proteins was done using standard blotting methods, HRP conjugated secondary antibodies and chemiluminescence detection reagents.
as §1, with “A” for “FIG. 3 is a”, “analysis was conducted” for “analysis”, “containing” for “contain”, “(See US2019/0062452, incorporated by reference herein).” for “(PMID: 17671174 & 26717206).”

[3] = target: T3, mouse IDO1 with V5 tag, expressed in T-REx cells (mouse, UniProt P28776 1-407); experiment: as above
T3 construct: Cell extract fractionated for the Western blot; also called murine IDO1; not shown: V5 tag
T3 sequence (P28776 whole entry): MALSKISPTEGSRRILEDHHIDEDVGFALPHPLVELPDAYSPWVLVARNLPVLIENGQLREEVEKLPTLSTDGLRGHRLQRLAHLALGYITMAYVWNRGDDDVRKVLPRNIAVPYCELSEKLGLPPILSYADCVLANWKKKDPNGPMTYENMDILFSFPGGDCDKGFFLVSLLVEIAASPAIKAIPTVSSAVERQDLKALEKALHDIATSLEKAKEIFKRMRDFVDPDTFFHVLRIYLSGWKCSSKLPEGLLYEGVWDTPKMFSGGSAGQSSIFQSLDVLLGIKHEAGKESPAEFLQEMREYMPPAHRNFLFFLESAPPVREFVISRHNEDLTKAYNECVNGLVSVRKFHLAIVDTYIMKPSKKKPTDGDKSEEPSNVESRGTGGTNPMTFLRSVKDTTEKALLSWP
Protocol: as §1
as §1, with “A” for “FIG. 3 is a”, “analysis was conducted” for “analysis”, “containing” for “contain”, “(See US2019/0062452, incorporated by reference herein).” for “(PMID: 17671174 & 26717206).”

[4] = target: T1, recombinant human IDO2 protein; experiment: ELISA; plate coated with 100 ng recombinant human IDO2; detection with anti-mouse IgG Fc-specific HRP and ABTS
Protocol: (§2) FIG. 1 is a graph showing the binding curves of three anti-human IDO2 monoclonal antibodies 13-3, 18-1 and 20-10 described herein and their binding concentrations vs. human IDO2 recombinant protein. Three cloned hybridomas were generated against the human IDO2 amino acids #331-351 (NP 919270; SEQ ID NO: 23). ELISA analysis compares the binding of the anti-human IDO2 antibodies (mAbs) to recombinant human IDO2 protein (100 ng of recombinant human IDO2 protein was used to coat the ELISA plate). Increasing concentrations of mAb were incubated with the coated protein and anti-IDO2 Ig that bound the fixed protein was detected with an anti-mouse IgG Fc-specific HRP secondary antibody and ABTS substrate. Data is presented as Mean±SD.
as §2, with “Three” for “FIG. 1 is a graph showing the binding curves of three anti-human IDO2 monoclonal antibodies 13-3, 18-1 and 20-10 described herein and their binding concentrations vs. human IDO2 recombinant protein. Three”, “substrate.” for “substrate. Data is presented as Mean±SD.”

| IC50 (read off the curve) [1] | binding result [2] | binding result [3] | EC50 (read off the curve) [4] | Binder |
| --- | --- | --- | --- | --- |
| ~9 µM |  |  |  | RDYILASGPGDCLMAYNQCVE [murine IDO2 epitope peptide (amino acids 331-351 of murine IDO2)] |
|  | no binding | no binding | ~0.01 µg/mL | anti-human IDO2 monoclonal antibody 13-3 (antibody, V domains shown, Mouse hybridoma antibody raised against human IDO2 amino acids 331-351; It was detected with an anti-mouse IgG Fc-specific secondary antibody; also called mAb 13-3) VH: QVRLQQPGAELVKPGASVKLSCKASGYTFTSYWMHWVKQRPGQGLEWIGEINPSTGRTNYNERFRSKATLTVDKFSTTAYMQFSSLTSEDSAVYYCVGLRFAYWGQGTLVSVSA VL: DVVMTQTPLSLPVSFGDQVSISCRSSQSLADSYGNTYLSWYLHKPGQSPQLLIYGISNRFSGVPDRFSGSGSGTDFTLKISTIKPEDLGMYYCLQGTHQPLTFGAGTKLELKR |
|  | no binding | no binding | ~0.02 µg/mL | anti-human IDO2 monoclonal antibody 20-10 (antibody, V domains shown, Mouse hybridoma antibody; It was detected with an anti-mouse IgG Fc-specific secondary antibody; also called mAb 20-10) VH: QVRLQQPGAELVKPGASVKLSCKASGYTFTSYWMHWVKQRPGQGLEWIGEINPSTGRTNYNERFRSKATLTVDKFSTTAYMQFSSLTSEDSAVYYCVGLRFAYWGQGTLVSVSA VL: DVVMTQTPLSLPVSFGDQVSISCRSSQSLADSYGNTYLSWYLHKPGQSPQLLIYGISNRFSGVPDRFSGSGSGTDFTLKISTIKPEDLGMYYCLQGTHQPLTFGAGTKLELKR |
|  | no binding | no binding | ~0.02 µg/mL | B1 |
| ~7 µM |  |  |  | RDYILSSGQDHLLTAYNQCVQ (also called hIDO2 Peptide) [Human Epitope] |
